Source: article PMC4303762, “Identification of PLXDC1 and PLXDC2 as the transmembrane receptors for the multifunctional factor PEDF” (eLife, 2014)

Biological target: the molecule itself
Assay: cross-linking; membranes of HEK293 cells transfected with the receptor, in PBS; disulfide bond formation catalysed by 0.5 mM Cu (II) phenanthroline, 5 min; non-reducing and reducing SDS-PAGE, Western blot for the receptor

B1: PLXDC1 in membranes of transfected HEK293 cells (copper phenanthroline crosslinking) (receptor, human, UniProt Q8IUK5 19-500, looked up)
chain: LSPQPGAGHDEGPGSGWAAKGTVRGWNRRARESPGHVSEPDRTQLSQDLGGGTLAMDTLPDNRTRVVEDNHSYYVSRLYGPSEPHSRELWVDVAEANRSQVKIHTILSNTHRQASRVVLSFDFPFYGHPLRQITIATGGFIFMGDVIHRMLTATQYVAPLMANFNPGYSDNSTVVYFDNGTVFVVQWDHVYLQGWEDKGSFTFQAALHHDGRIVFAYKEIPMSVPEISSSQHPVKTGLSDAFMILNPSPDVPESRRRSIFEYHRIELDPSKVTSMSAVEFTPLPTCLQHRSCDACMSSDLTFNCSWCHVLQRCSSGFDRYRQEWMDYGCAQEAEGRMCEDFQDEDHDSASPDTSFSPYDGDLTTTSSSLFIDSLTTEDDTKLNPYAGGDGLQNNLSPKTKGTPVHLGTIVGIVLAVLLVAAIILAGIYINGHPTSNAALFFIERRPHHWPAMKFRSHPDHSTYAEVEPSGHEKEGFMEAEQC
notes: human PLXDC1 with its cytoplasmic tail ending in the conserved cysteine; Detected by a Western blot for the receptor; also called the receptor; source: HEK293, transfected, in membrane preparation
- stoichiometry N: 2
